Our source for the protein production values is a protein production outcome set (Wang et al. 2014).
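Note: failed if final PepcDB status was selected cloned or expressed and not failed if soluble or beyond.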

A short description of this series: label from the status in PepcDB records.
With “MIRVASLIKAMSDTQLQIAQGASPLTGLPGNSAIEQEIKRRLNSGNAFGMIYADLNQFKAFNDTYGFQYGDSIIKLLGKILMQDSLKADDLAFVGHVGGDDFIILTTQNVTKTLGETILLSFQEQLSAMQGAQDLSLALAGLIIYPHTAWTPATLSERIAAVKREAKKAHCNYFLLRELEHHHHHH”, the protein production result is “failed”.
As for “MQQFHIRRLREEDIPLLKGLLVELDTSHYEAEPNFYRSPEEMAQLREERGVFDKYFDDSMIAFIACSHRQVVGFISGTVRDIDSMVSVAKRVGFVNELVVSESHRNLGIGLSLMDKIESDLCNQGIEEIGLTVASFNHEGEDFYHKMGYRVMTKMMSKRVKDLEHHHHHH”, the protein production result is listed as “not failed”.
The value for “KVILYARVSSSTQKDELVNQVKYLEEQVKEYDLVITDIGSGLNMKRKGFLKLLRMILNNEVSRVVVAYPDRLVRVGFEILEEVCKAHNCEIVVLNQEDKEEELVEDLMSALVSFSGKLYGMRSHEYEKVKKCAEELKNWKI” was “not failed”; that for “ASDFQTGIHKIVIQQSGDTDSFEVSVSIGGADKGGPAKLYNDKGEYIGDSYSAQIRTATMSCCTNGNAFFMTCAGSVSSISEAGKRLHITVIGYIDDKEVNRLEKEYITDGNTLIETFSVSTKEI” was “not failed”; that for “MVINSTVWQCEATGKENLTYEEAVKSERAARKKMEQFKQSLRAPVLLVVEHAQQSAVNTLNMIVAKFLRKRYFIGEEVSVQAKKNATYTVLGVKLDKNMPEPLNGIYEDTDNLVYRLRPNKGDPSAELDLPFRQLRRSRMEFNLENLSMFIKSNVSRVDGLLRPKPEA” was “failed”.
Under “MTINWIQAAILGLFACLCSNSCMAGQAVGNYTIGRPLVGGLVCGIILGDLKLGIACGVAMQLVYIALVTPGGTVSADVRAISYIGIPLAMVAISTKGLDPLGGSAADLAKSVGTLVGTIGTVLFYSVAALNLVWQSFGWKDIKKGKLDHLYAINFGWPWISHLLFSFLPTVILTYFGATAVTAMRDALPMDGLAMKTLFTVGGMLPCVGIAILLRQIVNKNIDFVPFFVGFTLAASLKLNLVSITIIALLFAVIFYKIALIKNNTKLVDSTGSLTNDDEEEDI” stands “failed”; under “MRVIVTEYQPAWVEQFEEEAQALKQILKENCLKVEHIGSTSVPNLAAKPIIDFLVIVEEIEKVDLLQWEFERIGYEYMGEFGLSGRRYLRKGPIKRTHHVHIYQFDNTQEILRHLAFRNYLRENPAIATTYGTLKKQLAQAHPDSIDKYMDGKDAFIKKIEKEALKKYWE”, “not failed”.
Take “MTSITPVTLANCEDEPIHVPGAIQPHGALVTLRADGMVLAASENIQALLGFVASPGSYLTQEQVGPEVLRMLEEGLTGNGPWSNSVETRIGEHLFDVIGHSYKEVFYLEFEIRTADTLSITSFTLNAQRIIAQVQLHNDTASLLSNVTDELRRMTGYDRVMAYRFRHDDSGEVVAESRREDLESYLGQRYPASDIPAQARRLYIQNPIRLIADVAYTPMRVFPALNPETNESFDLSYSVLRSVSPIHCEYLTNMGVRASMSISIVVGGKLWGLFSCHHMSPKLIPYPVRMSFQIFSQVCSAIVERLEQGRIAELLRVSTERRLALARRARDADDLFGALAHPDDGIAALIPCDGALVMLGGRTLSIRGDFERQAGNVLQRLQRDPERDIYHTDNWPQPSEDSPDGGDCCGVLAIRFHRQESGWIFWFRHEEVHRIRWGGKPEKLLTIGPSGPRLTPRGSFEAWEEVVRGHSTPWSETDLAIAEKLRLDLMELCLNHAAEVDRMRQRLIAVLGHDLRNPLQSISMAAALLSSSDTRTTELRQHISASSSRMERLVSQILDMSRLQSGIGLTVNPVDTDVSQLVRQIVCETDVAYPGLVIEIAIDPQVRAVVDPDRYAQVAANLLSNARHHGLPGRPVLVTLTRQGDEVCLSVLNETSGLSEAQLANLFEPFKRESADNQRNRNGLGIGLYISQAIAQAHQGRIDVDCRDDVITFCLRLPVRQAETGSSS”: the protein production entry is on record as “failed”.
In the case of “MMFNYIYTTFLTILYTVVMSLSLSLYLKEREKNYLLVSLYFLLLILNGLIVTMSETFQIFANDYNQQFMVNPIIETIYYLATFGIALKLVTELFEEKITTYQYGIYIVFALWLIVVPFMANSALKVWLYYFPSQLLTVYLGIYLLIHNRKMIPKSSLGKYVKLIGSLAIFFGLAIVVEDTFIIYFRDIYHTNMLKIHNRNVSEDIFHISLCLIAIKYFLTNYQKSNEEVAVIDIRNEKKETNDSVSNFEEDEYYFERFMDKYGITQREGEILELLLQRKHNQEIANQLYLSLGTVKTHTHNIFIKLQVEKRSEVCEVWEAFEKSELTQ”, the protein production result is “failed”.
The value for “MNSSIVNAGIDPQVRESLKSFVGEAIDYANTSGKDAAIAKFNDQNGTFVRGNLYVYAFDYNGTTLALPYQPQLIGTDLSGLQDPYGVNYTKLEHHHHHH” was “not failed”.
